Measurements reported in patent publication US20110165175A1 (AFFIMED THERAPEUTICS, published 2011).
Several values for one entry are separate records, joined by “and”; a condition that tells them apart may be missing. Equal values may be shown once.

Tests used:
[1] = target: platelet integrin receptor GPIIb/IIIa (alpha IIb/beta 3), activated state, on ADP-activated human platelets (human) (UniProt P08514); assay: flow cytometry, ADP-activated platelets in diluted human whole blood, scFv at 3.9×10^-2 µg/mL, background of secondary reagent subtracted
[2] = target: platelet integrin receptor GPIIb/IIIa (alpha IIb/beta 3), non-activated state, on non-activated human platelets (human) (UniProt P08514); assay: flow cytometry, non-activated platelets in diluted human whole blood, scFv at 9.8×10^-3 µg/mL, background of secondary reagent subtracted
[3] = target: platelet integrin receptor GPIIb/IIIa (alpha IIb/beta 3), activated state, on ADP-activated human platelets (human) (UniProt P08514); assay: flow cytometry, inhibition of fibrinogen binding to ADP-activated platelets in whole blood, 4-parameter logistic fit
[4] = target: platelet integrin receptor GPIIb/IIIa (alpha IIb/beta 3), activated state, on ADP-activated human platelets (human) (UniProt P08514); assay: flow cytometry, ADP-activated platelets in diluted human whole blood, scFv at 9.8×10^-3 µg/mL, background of secondary reagent subtracted
[5] = target: platelet integrin receptor GPIIb/IIIa (alpha IIb/beta 3), non-activated state, on non-activated human platelets (human) (UniProt P08514); assay: flow cytometry, non-activated platelets in diluted human whole blood, scFv at 4.9×10^-3 µg/mL, background of secondary reagent subtracted
[6] = target: platelet integrin receptor GPIIb/IIIa (alpha IIb/beta 3), activated state, on ADP-activated human platelets (human) (UniProt P08514); assay: flow cytometry, ADP-activated platelets in diluted human whole blood, scFv at 4.9×10^-3 µg/mL, background of secondary reagent subtracted
[7] = target: platelet integrin receptor GPIIb/IIIa (alpha IIb/beta 3), activated state, on ADP-activated human platelets (human) (UniProt P08514); assay: flow cytometry, ADP-activated platelets in diluted human whole blood, scFv at 2.0×10^-3 µg/mL as printed, background of secondary reagent subtracted
[8] = target: platelet integrin receptor GPIIb/IIIa (alpha IIb/beta 3), non-activated state, on non-activated human platelets (human) (UniProt P08514); assay: flow cytometry, non-activated platelets in diluted human whole blood, scFv at 0.1 µg/mL, background of secondary reagent subtracted
[9] = target: platelet integrin receptor GPIIb/IIIa (alpha IIb/beta 3), activated state, on ADP-activated human platelets (human) (UniProt P08514); assay: flow cytometry, ratio against non-activated platelets at the same scFv concentration (FIG. 23 B)
[10] = target: platelet integrin receptor GPIIb/IIIa (alpha IIb/beta 3), non-activated state, on non-activated human platelets (human) (UniProt P08514); assay: flow cytometry, non-activated platelets in diluted human whole blood, scFv at 2.0×10^-3 µg/mL as printed, background of secondary reagent subtracted
[11] = target: platelet integrin receptor GPIIb/IIIa (alpha IIb/beta 3), activated state, on ADP-activated human platelets (human) (UniProt P08514); assay: flow cytometry, ADP-activated platelets in diluted human whole blood, scFv at 0.1 µg/mL, background of secondary reagent subtracted
[12] = target: platelet integrin receptor GPIIb/IIIa (alpha IIb/beta 3), non-activated state, on non-activated human platelets (human) (UniProt P08514); assay: flow cytometry, non-activated platelets in diluted human whole blood, scFv at 3.9×10^-2 µg/mL, background of secondary reagent subtracted
[13] = target: platelet integrin receptor GPIIb/IIIa (alpha IIb/beta 3), activated state, on ADP-activated human platelets (human) (UniProt P08514); assay: flow cytometry, inhibition of fibrinogen binding to ADP-activated platelets in whole blood
[14] = target: T1, platelet integrin receptor GPIIb/IIIa (alpha IIb/beta 3), activated state, on ADP-activated human platelets (human, UniProt P08514 32-1039; P05106 27-788); assay: FACS, inhibition of fibrinogen binding to activated human platelets
T1 construct: whole, on cells; The assays were on whole platelets

B1: human anti-gpIIb/IIIa single chain antibody (scFv) SCE5 (scFv, V domains shown, not shown: small tags and cut ends)
VH: QVQLQESGGGLVQPGGSLRLSCAASGFMFSRYAMSWVRQAPGKGPEWVSGISGSGGSTYYADSVKGRFTVSRDNSKNTLYLQMNSLRAEDTAVYYCARGATYTSRSDVPDQTSFDYWGQGTLVTVSS
VL: SSELTQDPAVSVALGQTVRITCQGDSLRNFYASWYQQKPGQAPTLVIYGLSKRPSGIPDRFSASSSGNTASLTITGAQAEDEADYYCLLYYGGGQQGVFGGGTKLTVL
modifications: linker and His tag
fluorescence signal value [1]: 2.84 | fluorescence signal value [2]: 0.015 | EC50 [3]: 0.94 µg/mL | fluorescence signal value [4]: 0.612 | fluorescence signal value [5]: 0.013 | fluorescence signal value [6]: 0.265 | fluorescence signal value [7]: 1.33 | fluorescence signal value [8]: 0.16 | fluorescence on activated platelets divided by fluorescence on non-activated platelets [9]: 10 times | fluorescence signal value [10]: 0.027 | fluorescence signal value [11]: 4.15 | fluorescence signal value [12]: 0.05 | concentration at which the inhibitory effect starts [13]: 0.1 to 0.2 µg/mL | concentration of maximal inhibitory effect [13]: 10 µg/mL

B2: ReoPro (abciximab, Centocor/Eli Lily) (Fab, INN chains, looked up, V domains shown)
VH: EVQLQQSGTVLARPGASVKMSCEASGYTFTNYWMHWVKQRPGQGLEWIGAIYPGNSDTSYIQKFKGKAKLTAVTSTTSVYMELSSLTNEDSAVYYCTLYDGYYVFAYWGQGTLVTVSA
VL: EIVLTQSPVTLSVTPGDSVSLSCRASRDISNNLHWFQQTSHESPRLLIKYASQSMSGIPSRFSGSGSGTDFTLSINSVETEDFGMYFCQQTNSWPYTFGGGTKLEIK
modifications: Fab
EC50 [13]: 0.16 µg/mL

B3: MB9 scFv (scFv)
scFv: MAEVQLVQSGAEVNKPGASVKVSCKASGYTFTGYYMHWVRQAPGQGLEWMGWINPNSGGTNYAQKFQGWVTMTRDTSISTAYMELSRLRSDDTAVYYCARGRALYNRNDRSPNWFDPWGQGTLVTVSSGSASAPTLKLEEGEFSEARVQAVLTQPPSVSVAPGQTARITCGGNNIGSKSVQWYQQKPGQAPVLVVYDDSDRPSGIPERFSGSNSGNMATLTISRVEAGDEADYYCQVWDSSSDHVVFGGGTKLTVLGQPKAAPSVTLFPPSAAAGSHHHHHH
notes: Human scFv from the natural IgM phage library, 31 kDa, detected through a His tag; also called clone MB9; MA2
IC50 [14]: 1.1 µg/mL and 35 nM
